The labels stand for the following.
B1: HDV Ribozyme (parent)
chain: GGCCGGCAUGGUCCCAGCCUCCUCGCUGGCGCCGGCUGGGCAACAUUCCGAGGGGACCGUCCCCUCGGUAAUGGCGAAUGGGACCCA

The variants in this data set derive from B1. Kind of data set: self-cleavage, relative activity (ratio to wild type); higher = more cleavage; co-transcriptional.
For the variant GGCCGGUAUGGUCCCAGCCUCCUCGCUGGCGCCGGCUGGGCAACAUUUCGAGGGGACCGUCCCCUCGGUAAUGGCGAAUGGGACCCA [C7U C48U], the self-cleavage was 0.997.

Turning to GGCCGGUAUGGUCCCAGCCUCCUCGCUGGCGCCGGCUGGGCAACAUUACGAGGGGACCGUCCCCUCGGUAAUGGCGAAUGGGACCCA [C7U C48A], the self-cleavage worked out at 0.767.

With GGCCGGUAUGGUCCCAACCUCCUCGCUGGCGCCGGCUGGGCAACAUUCCGAGGGGACCGUCCCCUCGGUAAUGGCGAAUGGGACCCA [C7U G17A], the self-cleavage was 0.332.

Take GGCCGGUAUGGUCCCAGCCUCCUCGCUGGCGCCGGCUGGGCAAAAUUCCGAGGGGACCGUCCCCUCGGUAAUGGCGAAUGGGACCCA [C7U C44A]: the self-cleavage was 0.403.

For GGCCGGUAUGGUCCCAGCCUCCUCGCUGGCGCCGUCUGGGCAACAUUCCGAGGGGACCGUCCCCUCGGUAAUGGCGAAUGGGACCCA [C7U G35U], the self-cleavage was determined as 0.0437.

On to GGCCGGUAUGGUCCCAGCCUCCUCGCUGGCGCCGACUGGGCAACAUUCCGAGGGGACCGUCCCCUCGGUAAUGGCGAAUGGGACCCA [C7U G35A], for which the self-cleavage amounted to 0.109.

As to GGCCGGUAUGGUCCCAGCCUCCUCGCUGGAGCCGGCUGGGCAACAUUCCGAGGGGACCGUCCCCUCGGUAAUGGCGAAUGGGACCCA [C7U C30A], the self-cleavage turned out to be 0.369.

GGCCGGUAUGGUCCCAGCCUCCUCGCUGGGGCCGGCUGGGCAACAUUCCGAGGGGACCGUCCCCUCGGUAAUGGCGAAUGGGACCCA [C7U C30G]: the self-cleavage turned out to be 0.

As to GGCCGGUAUGGUCCCAGCCUCCUCGCUGGCGCCGGCUGGGCAACAUUCCGAGGGGACCGUCCCGUCGGUAAUGGCGAAUGGGACCCA [C7U C64G], the self-cleavage worked out at 0.892.

As for GGCCGGUAUGGUCCCAGCCUCCUCGCUGGCGCCGGCUGGGCAACAUUCCGAGGGGACCGUCCCUUCGGUAAUGGCGAAUGGGACCCA [C7U C64U], the self-cleavage turned out to be 0.68.

As for GGCCGGUAUGGUCCCAGCCUCCUCGCUGGCGCCGGCUGGGCAACAUUCCGAGGGGACCGUACCCUCGGUAAUGGCGAAUGGGACCCA [C7U C61A], the self-cleavage came out at 0.87.

In the case of GGCCGGUAUGGUCCCAGCCUCCUAGCUGGCGCCGGCUGGGCAACAUUCCGAGGGGACCGUCCCCUCGGUAAUGGCGAAUGGGACCCA [C7U C24A], the self-cleavage came to 0.256.

GGCCGGUAUGGUCCCAGCCUCCUCGCUGGCGCCGGCUGGGCAACAUUCCGAUGGGACCGUCCCCUCGGUAAUGGCGAAUGGGACCCA [C7U G52U]: the self-cleavage was determined as 0.562.

For the variant GGCCGGUAUGGUCCCAGCCUCCUCGCUGGCGCCGGCUGGGCAACAUUCCGACGGGACCGUCCCCUCGGUAAUGGCGAAUGGGACCCA [C7U G52C], the self-cleavage was determined as 0.849.

Turning to GGCCGGUAUGGUCCCAGCCUCCUCUCUGGCGCCGGCUGGGCAACAUUCCGAGGGGACCGUCCCCUCGGUAAUGGCGAAUGGGACCCA [C7U G25U], the self-cleavage was 0.203.

Regarding GGCCGGUAUUGUCCCAGCCUCCUCGCUGGCGCCGGCUGGGCAACAUUCCGAGGGGACCGUCCCCUCGGUAAUGGCGAAUGGGACCCA [C7U G10U], the self-cleavage came to 0.374.

As for GGCCGGUAUGGUCCCAGCCUACUCGCUGGCGCCGGCUGGGCAACAUUCCGAGGGGACCGUCCCCUCGGUAAUGGCGAAUGGGACCCA [C7U C21A], the self-cleavage came out at 0.0314.

As for GGCCGGUAUGGUCCCAGCCUUCUCGCUGGCGCCGGCUGGGCAACAUUCCGAGGGGACCGUCCCCUCGGUAAUGGCGAAUGGGACCCA [C7U C21U], the self-cleavage worked out at 0.0652.

For the variant GGCCGGUAUGGUCCCAGCCUGCUCGCUGGCGCCGGCUGGGCAACAUUCCGAGGGGACCGUCCCCUCGGUAAUGGCGAAUGGGACCCA [C7U C21G], the self-cleavage came out at 0.0739.

Regarding GGCCGGUAUGGUCCCAGCCUCCUCGCUGGCGCCGGCUGGGCAACAUUCGGAGGGGACCGUCCCCUCGGUAAUGGCGAAUGGGACCCA [C7U C49G], the self-cleavage stood at 0.665.

For GGCCGGUAUGGUCCCAGCCUCCUCGCUGGCGCCGGCUGGGCAACAUUCCGAGGGGACCGUCGCCUCGGUAAUGGCGAAUGGGACCCA [C7U C62G], the self-cleavage came out at 0.643.

As for GGCCGGUAUGGUCCCAGCCUCCUCGCUGGCGCCGGCUGGGCAACAUUCCGAGGGGACCGUCUCCUCGGUAAUGGCGAAUGGGACCCA [C7U C62U], the self-cleavage worked out at 0.831.

Regarding GGCCGGUAUGGUCCCAGCCUCCUCGCUGGCGCCGGCUGGGAAACAUUCCGAGGGGACCGUCCCCUCGGUAAUGGCGAAUGGGACCCA [C7U C41A], the self-cleavage stood at 0.571.

In the case of GGCCGGUAUGGUCCCAGCCUCCUCGCUGGCGCCGGCUGGGCAACAUUCCGAGGGGACCGUCCCCUCGGUAAUGGUGAAUGGGACCCA [C7U C75U], the self-cleavage was determined as 0.0978.

GGCCGGUAUGGUCCCAGCCUCCUCGCUGGCGCCGGCUGGGCAACAUUCCGAGGGGACCGUCCCCUCGGUAAUGGCGAAUGGGACCGA [C7U C86G]: the self-cleavage was found to be 0.617.

For GGCCGGUAUGGUCCCAGCCUCCUCGCUGGCGCCGGCUGGGCAACAUUCCGAGGGGACCGUCCCCUCGGUAAUGGCGAAUGGGACCAA [C7U C86A], the self-cleavage was determined as 0.872.

On to GGCCGGUAUGGUCCCAGCCUCCUCGCUGGCGCCGGCUGGGCAACAUUCCGAGGGGACCGUCCCCUCGGUAAUGGCGAAUGGGACCUA [C7U C86U], for which the self-cleavage was determined as 0.678.

Take GGCCGGUAUGGUCCCAGCCUCCUCGCUGGCGCCGGCUGUGCAACAUUCCGAGGGGACCGUCCCCUCGGUAAUGGCGAAUGGGACCCA [C7U G39U]: the self-cleavage worked out at 0.289.

Regarding GGCCGGUAUGGUCCCAGCCUCCUCGCUGGCGCCGGCUGAGCAACAUUCCGAGGGGACCGUCCCCUCGGUAAUGGCGAAUGGGACCCA [C7U G39A], the self-cleavage stood at 0.3.

Take GGCCGGUAUGGUCCCAGCCUCCUCGCUGGCGCCGGCUGGGCAACAUUCCGAGGGGACCGUCCGCUCGGUAAUGGCGAAUGGGACCCA [C7U C63G]: the self-cleavage stood at 0.569.

With GGCCGGUAUGGUCCCAGCCUCCUCGCUGGCGCCGGCUGGGCAACAUUCCGAGGGGACCGUCCACUCGGUAAUGGCGAAUGGGACCCA [C7U C63A], the self-cleavage was determined as 0.751.

In the case of GGCCGGUAUGCUCCCAGCCUCCUCGCUGGCGCCGGCUGGGCAACAUUCCGAGGGGACCGUCCCCUCGGUAAUGGCGAAUGGGACCCA [C7U G11C], the self-cleavage worked out at 0.119.

For the origin of these results see the RNAGym collection of RNA variant scans (doi:10.7554/elife.80360).
